According to patent US20260242485A1 (LEPU BIOPHARMA, published 2026):

T1: mouse CCR8 expressed on CHO-K1 cells (mouse, UniProt P56484 1-353)
T1 construct: whole, on cells; also called mCCR8; murine CCR8
T1 sequence (looked up): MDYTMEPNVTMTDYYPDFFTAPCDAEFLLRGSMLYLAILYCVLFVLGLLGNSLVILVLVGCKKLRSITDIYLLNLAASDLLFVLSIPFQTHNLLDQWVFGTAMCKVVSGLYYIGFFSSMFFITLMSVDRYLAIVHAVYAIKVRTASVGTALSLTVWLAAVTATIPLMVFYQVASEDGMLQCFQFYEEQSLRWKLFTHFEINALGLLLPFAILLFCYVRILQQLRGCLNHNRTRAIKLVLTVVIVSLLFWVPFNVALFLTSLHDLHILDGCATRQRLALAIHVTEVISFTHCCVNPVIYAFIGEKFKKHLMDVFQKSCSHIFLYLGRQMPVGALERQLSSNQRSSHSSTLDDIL


Assays:
[1] = biological target: T2, human CCR8 expressed on cells (human, UniProt P51685 1-355); assay: flow cytometry, HEK293 hCCR8 cells (HEK293 NC parental cells as control), PE anti-human IgG Fc, geometric mean
T2 construct: whole, on cells; also called hCCR8; HEK293 hCCR8 cell line
Experimental: (§1) Briefly, HEK293 hCCR8 cell line, CHO-K1 mCCR8 cell line and the parental cell lines were first incubated with serially diluted 194A1G9 at 4° C. for 30 mins. After washing by FACS buffer, PE Goat anti-Human IgG Fc Secondary Antibody (eBioscience™, Invitrogen) was added to each well and incubated at 4° C. for 30 mins. Samples were washed twice with FACS staining buffer. The mean florescence intensity (MFI) of PE was evaluated by MACSQuant Analyzer 16.

[2] = biological target: T1, mouse CCR8 expressed on CHO-K1 cells; assay: flow cytometry, CHO-K1 mCCR8 cells (CHO-K1 NC parental cells as control), PE anti-human IgG Fc, geometric mean
Experimental: as §1

[3] = biological target: T3, cynomolgus CD16 expressed on CHO-K1 cells (cynomolgus, UniProt Q8SPW2 17-254); assay: flow cytometry, CHO-K1-cyno CD16 cells, geometric mean
T3 construct: whole, on cells; also called cyno CD16; CHO-K1-cynoCD16
Experimental: (§2) In order to evaluate the binding activity of the chimeric mAbs to human CD16A expressed on cells, cell-based binding assay was employed as followed. […] The antibody dilutions were incubated with 1×10⁵ indicated cells in the 96-well microplate for one hour at 4° C. The antibodies binding to the antigen on the cell surface were detected with PE fluorophore-conjugated anti-human IgG Fc secondary antibodies (ThermoFisher scientific, Cat. No. 12-4998-82) at a dilution rate of 1:1000. Cells were analyzed by flow cytometer LSRFortessa Cell Analyzer (BD Biosciences). Data were analyzed with Flowjo 10.0 software. The graph and statistics analysis were generated with four-parameter nonlinear regression curve fit in Graphpad Prism 9 software.
(§3) The assay was performed following the protocol described above.

[4] = biological target: T4, human CD16A-158V expressed on CHO-K1 cells (human, UniProt P08637 17-254); assay: flow cytometry, CHO-K1-hCD16A-158V cells, geometric mean
T4 construct: whole, on cells; also called hCD16A-158V; CHO-K1-hCD16A-158V
Experimental: as §2, §3

[5] = biological target: T5, human CD16A-158F expressed on CHO-K1 cells (human, UniProt P08637 17-254); assay: flow cytometry, CHO-K1-hCD16A-158F cells, geometric mean
T5 construct: whole, on cells
Experimental: as §2, §3

[6] = biological target: T3, cynomolgus CD16 expressed on CHO-K1 …; assay: flow cytometry, CHO-K1-cyno CD16 cells, Alexa Fluor 647 anti-human IgG Fc, geometric mean
Experimental: as §2
(§4) The assay was performed following the protocol described above. The antibodies binding to the antigen on the cell surface were detected with Alexa Fluor® 647 AffiniPure™ F(ab′)₂ fragment goat anti-human IgG Fcγ fragment specific secondary antibody (Jackson Immuno Research, Cat. No. 109-606-098) at a dilution rate of 1:2000.

[7] = biological target: T6, human CD16B-NA1 expressed on CHO-K1 cells (human, UniProt O75015 17-200); assay: flow cytometry, CHO-K1-hCD16B-NA1 cells, Alexa Fluor 647 anti-human IgG Fc, geometric mean
T6 construct: whole, on cells; also called hCD16B-NA1; CHO-K1-hCD16B-NA1
Experimental: as §2, §4

[8] = biological target: T4, human CD16A-158V expressed on CHO-K1 …; assay: flow cytometry, CHO-K1-hCD16A-158V cells, Alexa Fluor 647 anti-human IgG Fc, geometric mean
Experimental: as §2, §4

[9] = biological target: T5, human CD16A-158F expressed on CHO-K1 …; assay: flow cytometry, CHO-K1-hCD16A-158F cells, Alexa Fluor 647 anti-human IgG Fc, geometric mean
Experimental: as §2, §4

[10] = biological target: T6, human CD16B-NA1 expressed on CHO-K1 …; assay: flow cytometry, CHO-K1-hCD16B-NA1 cells, geometric mean
[11] = biological target: T4, human CD16A-158V expressed on CHO-K1 …; assay: flow cytometry, CHO-K1-hCD16A-158V cells, geometric mean; remark: listed apart in the source
[12] = biological target: T5, human CD16A-158F expressed on CHO-K1 …; assay: flow cytometry, CHO-K1-hCD16A-158F cells, geometric mean; remark: listed apart in the source
[13] = biological target: T7, human GPC3 on HepG2 cells (human, UniProt P51654 25-554); assay: flow cytometry, HepG2 cells (GPC3 positive), geometric mean
T7 construct: whole, on cells; also called GPC3-positive HepG2 cells
T7 sequence (P51654 25-554 limits assumed): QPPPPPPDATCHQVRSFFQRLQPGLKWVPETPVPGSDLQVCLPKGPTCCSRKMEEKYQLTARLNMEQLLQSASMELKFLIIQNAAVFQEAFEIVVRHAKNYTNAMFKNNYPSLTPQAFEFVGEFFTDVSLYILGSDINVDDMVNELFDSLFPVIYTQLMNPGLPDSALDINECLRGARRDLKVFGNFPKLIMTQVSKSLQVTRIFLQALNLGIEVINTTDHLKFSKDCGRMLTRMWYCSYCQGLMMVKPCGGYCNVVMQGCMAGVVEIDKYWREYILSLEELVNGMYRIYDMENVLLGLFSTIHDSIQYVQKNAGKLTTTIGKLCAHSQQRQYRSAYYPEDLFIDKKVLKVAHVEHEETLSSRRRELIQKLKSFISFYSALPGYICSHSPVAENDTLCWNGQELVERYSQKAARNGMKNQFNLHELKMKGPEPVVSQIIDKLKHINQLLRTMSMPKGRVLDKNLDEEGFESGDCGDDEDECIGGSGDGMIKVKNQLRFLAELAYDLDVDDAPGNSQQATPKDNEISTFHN

T5 sequence (P08637 17-254): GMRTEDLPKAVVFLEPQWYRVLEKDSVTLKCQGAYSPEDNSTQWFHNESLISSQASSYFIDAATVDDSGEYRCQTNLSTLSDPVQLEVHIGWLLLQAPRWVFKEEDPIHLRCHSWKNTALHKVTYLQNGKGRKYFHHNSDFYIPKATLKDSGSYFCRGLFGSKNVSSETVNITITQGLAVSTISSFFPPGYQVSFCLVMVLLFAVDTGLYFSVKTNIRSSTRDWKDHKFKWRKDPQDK
T6 sequence (O75015 other isoform, or with tags, fused parts or gaps): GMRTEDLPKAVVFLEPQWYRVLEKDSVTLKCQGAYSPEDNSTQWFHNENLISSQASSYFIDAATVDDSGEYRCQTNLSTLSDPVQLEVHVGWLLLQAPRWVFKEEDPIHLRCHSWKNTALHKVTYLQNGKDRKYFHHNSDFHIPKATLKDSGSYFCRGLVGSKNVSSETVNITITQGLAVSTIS
T4 sequence (P08637 17-254 F176V): as the sequence (P08637 17-254) above, with F160V counted along it
T3 sequence (Q8SPW2 17-254): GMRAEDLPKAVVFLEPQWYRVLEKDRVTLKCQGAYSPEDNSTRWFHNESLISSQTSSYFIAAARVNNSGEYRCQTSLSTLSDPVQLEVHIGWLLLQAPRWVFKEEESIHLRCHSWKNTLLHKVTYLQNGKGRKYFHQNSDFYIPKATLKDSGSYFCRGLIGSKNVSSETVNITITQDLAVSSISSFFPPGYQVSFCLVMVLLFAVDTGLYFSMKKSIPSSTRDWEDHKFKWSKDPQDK
T2 sequence (P51685 whole entry): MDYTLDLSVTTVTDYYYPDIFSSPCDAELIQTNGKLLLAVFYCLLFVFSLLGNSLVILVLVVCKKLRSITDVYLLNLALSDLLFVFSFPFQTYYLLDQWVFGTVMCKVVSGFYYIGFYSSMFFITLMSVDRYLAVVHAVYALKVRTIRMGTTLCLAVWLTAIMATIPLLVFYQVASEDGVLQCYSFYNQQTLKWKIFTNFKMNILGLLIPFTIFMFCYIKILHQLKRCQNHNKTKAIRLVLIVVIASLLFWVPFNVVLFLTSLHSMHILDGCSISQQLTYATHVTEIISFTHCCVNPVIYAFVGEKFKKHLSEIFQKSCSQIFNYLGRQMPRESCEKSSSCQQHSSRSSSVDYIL

| Binder | EC50 (read off the curve) [1] | EC50 (read off the curve) [2] | EC50 (read off the curve) [3] | EC50 (read off the curve) [4] | EC50 (read off the curve) [5] | EC50 (read off the curve) [6] | binding result [7] | EC50 (read off the curve) [8] | EC50 (read off the curve) [9] | binding result [10] | EC50 (read off the curve) [11] | EC50 (read off the curve) [12] | binding result [13] |
| --- | --- | --- | --- | --- | --- | --- | --- | --- | --- | --- | --- | --- | --- |
| 194A1G9 (antibody, V domains shown, Detected with anti-human IgG Fc, so with a human Fc; also called surrogate anti-CCR8 antibody 194A1G9; in house anti-mCCR8 clone 194A1G9) VH: QVQLQQSGTELVRPGASVTLSCKASGYTFTDHEMYWVKQTPVHGLEWIGAVDPETGSTAYNQKFKVKAILTADKSSSTAYMELRSLTSEDSAVYYCTSRLRRAMDNWGHGTSVTVSS VL: DVVLTQTPLSLPVSPGDQASISCRSSQTLLHSSGNTYLHWFLQKPGQSPKLLIYKVSNRFSGVPDRFSGSGSGTDFTLKISRVEAEDLGVYFCSQNTHVPWTFGGGTKLEIK | ~0.1 nM | ~5 nM |  |  |  |  |  |  |  |  |  |  |  |
| 45H6E8-z19 (antibody, human IgG1, V domains shown, Human IgG1 LALAPG constant region; also called HU-VH1-6 / HU-VL1-3) VH: QVQLVQSGAEVKKPGASVKVSCKVSGYTLTDYYMQWVRQAPGKGLEWIGWIDPENGDTEYAPKFQGRVTMTADTSTDTAYMELSSLRSEDTAVYYCTTGGNYVDWGQGTTVTVSS VL: DIQMTQSPSFLSASVGDRVTITCKASQNVGTAVAWYQQKPGKAPKLLIYSASNRYTGVPDRFSGSGSGTDFTLTISSLQPEDFATYFCQQYSSYPLLTFGQGTRLEIK |  |  | ~0.7 nM | ~0.4 nM | ~0.4 nM | ~1 nM | no binding (tested: 100 nM) | ~0.4 nM | ~0.4 nM |  |  |  |  |
| 45H6E8-z20p1 (antibody, V domains shown, PTM-removed version of z20) VH: QVQLVQSGAEVKKPGASVKVSCKVSGYTLTDYYMQWVRQAPGKGLEWMGWIDPEQGDTEYAPKFQGRATMTADTSTDTAYMELSSLRSEDTAVYYCTTGGNYVDWGQGTTVTVSS VL: DIQMTQSPSFLSASVGDRVTITCKASQNVGTAVAWYQQKPGKAPKLLIYSASNRYTGVPDRFSGSGSGTDFTLTISSLQPEDFATYFCQQYSSYPLLTFGQGTRLEIK |  |  | ~0.7 nM | ~0.4 nM | ~0.4 nM |  |  |  |  | no binding (tested: 100 nM) |  |  |  |
| 45H6E8-z20 (antibody, human IgG1, V domains shown, Human IgG1 LALAPG constant region; also called HU-VH1-7 / HU-VL1-3) VH: QVQLVQSGAEVKKPGASVKVSCKVSGYTLTDYYMQWVRQAPGKGLEWMGWIDPENGDTEYAPKFQGRATMTADTSTDTAYMELSSLRSEDTAVYYCTTGGNYVDWGQGTTVTVSS VL: DIQMTQSPSFLSASVGDRVTITCKASQNVGTAVAWYQQKPGKAPKLLIYSASNRYTGVPDRFSGSGSGTDFTLTISSLQPEDFATYFCQQYSSYPLLTFGQGTRLEIK |  |  | ~0.8 nM | ~0.4 nM | ~0.4 nM | ~1 nM | no binding (tested: 100 nM) | ~0.4 nM | ~0.4 nM |  |  |  |  |
| 45H6E8-z19p1 (antibody, V domains shown, PTM-removed (N to Q in VH CDR2) version of z19) VH: QVQLVQSGAEVKKPGASVKVSCKVSGYTLTDYYMQWVRQAPGKGLEWIGWIDPEQGDTEYAPKFQGRVTMTADTSTDTAYMELSSLRSEDTAVYYCTTGGNYVDWGQGTTVTVSS VL: DIQMTQSPSFLSASVGDRVTITCKASQNVGTAVAWYQQKPGKAPKLLIYSASNRYTGVPDRFSGSGSGTDFTLTISSLQPEDFATYFCQQYSSYPLLTFGQGTRLEIK |  |  | ~0.7 nM | ~0.4 nM | ~0.4 nM |  |  |  |  | no binding (tested: 100 nM) | ~0.5 nM | ~0.5 nM | no binding (tested: 100 nM) |
